In patent US20240277861A1, “ANTI-HEPATITIS B VIRUS AGENT TARGETING HOST FACTOR LIPG” (PUROTECH BIO, INC., priority 2021, published 2024):
Where a chain is given by its changes, count along the chain named.

B1: 10M-LN4SN: fusion of ASGR3-10M scFv, cleavage sequence, LIPH4-N4BP1b, S28, nuclear localization signal (SEQ ID NO: 134) (protein)
chain: RVRRSNCRINTFRDYKDDDDKHHHHHHHPFVIGAGVLGALGTGIGGITTSTQFYYKPAAKRVKLD
modifications: cleavage sequence + LIPH4-N4BP1b + Flag-tag + His-tag + S28 + nuclear localization signal
B2: 10M-LLNTSN: fusion of ASGR3-10M scFv, cleavage sequence, LIPH4-LNTNBs, S28, nuclear localization signal (SEQ ID NO: 131) (protein)
chain: B1 chain with S5L, I9H, F12A, R13G
modifications: cleavage sequence + LIPH4-NTNBs + Flag-tag + His-tag + S28 + nuclear localization signal
B3: 10M-LN4N: fusion of ASGR3-10M scFv, cleavage sequence, LIPH4-N4BP1a, S28, nuclear localization signal (SEQ ID NO: 133) (protein)
chain: RVRRSNCRINTFRTVPIEQKDYKDDDDKHHHHHHHPFVIGAGVLGALGTGIGGITTSTQFYYKPAAKRVKLD
modifications: cleavage sequence + LIPH4-N4BP1a + Flag-tag + His-tag + S28 + nuclear localization signal
B4: 10M-LLNTSN-S39: fusion of ASGR3-10M scFv, cleavage sequence, LIPH4-LNTNBs, S39, nuclear localization signal (SEQ ID NO: 132) (protein)
chain: RVRRLNCRHNTAGDYKDDDDKHHHHHHHPFVIGAGVLGALGTGIGGITTSTQFYYKLSQELNGDMERPAAKRVKLD
modifications: cleavage sequence + LIPH4-NTNBs + Flag-tag + His-tag + S39 + nuclear localization signal

target: T1, full-length form of LIPG (500 amino acids) (Homo sapiens, UniProt Q9Y5X9); assay: Pull-down assay of LIPH4 peptides against full-length LIPG; type: binding; details: culture supernatant of transfected 293T cells, compared with no bait
T1 construct: A pull-down assay was performed on the full-length form of LIPG (500 amino acids); made in house
T1 sequence (Q9Y5X9 21-500): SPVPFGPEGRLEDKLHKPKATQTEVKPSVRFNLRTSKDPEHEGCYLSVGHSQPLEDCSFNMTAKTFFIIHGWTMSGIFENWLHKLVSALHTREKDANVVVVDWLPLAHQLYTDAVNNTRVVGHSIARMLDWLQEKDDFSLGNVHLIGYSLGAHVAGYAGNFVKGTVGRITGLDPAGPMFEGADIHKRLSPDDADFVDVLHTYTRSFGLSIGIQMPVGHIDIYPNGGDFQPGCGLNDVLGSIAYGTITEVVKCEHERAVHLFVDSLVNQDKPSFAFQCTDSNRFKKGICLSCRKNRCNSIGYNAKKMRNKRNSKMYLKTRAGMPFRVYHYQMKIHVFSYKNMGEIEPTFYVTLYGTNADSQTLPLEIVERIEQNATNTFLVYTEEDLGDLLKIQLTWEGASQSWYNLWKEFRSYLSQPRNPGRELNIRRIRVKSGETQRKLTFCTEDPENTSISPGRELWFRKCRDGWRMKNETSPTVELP
Description: Human embryonic kidney 293T cells were cultured in DMEM (1.0 g/l glucose) with L-Gln and Sodium Pyruvate, liquid (Nacalai) supplemented with 10% FCS ([…]). Plating was performed in a 1:2 ratio on 6 cm dishes 24 hours before transfection. Lipofectamine 2000 in a volume of 20 μl was added to 500 μl of Opti-MEM 1 and allowed to stand for 5 minutes at room temperature, and the resulting mixture was gently added to a 6 cm dish containing a mixture of 500 μl of Opti-MEM 1 and 8 μg of a plasmid DNA. The resulting mixture was allowed to stand for 20 minutes at room temperature, and then added to a 6 cm dish containing 293T cells, and the cells were cultured at 37° C. in 5% CO2 for 4 to 6 day.
Resin (Streptavidin MagneSphere Paramagnetic Particles) (Promega) was washed using the MagneSphere Technology Magnetic Separation Stand (tweleve-position). The resin in a volume of 40 μl was added to each 1.5 ml tube, and after removal of the solution, washed three times with 1 ml of PBS. The resin was transferred to new tubes and mixed with 0.5 nmol (109 μl) of LIPG-BioFLAGHis or with 109 μl of PBS as a no bait control, and the resulting mixtures were agitated at 4° C. for 1 hour by rotation on a mini-disk rotor (BIO CRAFT) to allow binding. After removal of the solution, the resin was washed three times with 1 ml of TBST (containing 0.05% Tween 20). The resin was transferred to new tubes, blocked with 1 ml of ELISA BSA buffer (TBS, 0.05%, Tween 20, 1% BSA. Nacalai Tesque, Inc.) at 4° C. for 1 hour, and then washed three times with 1 ml of ELISA BSA buffer. The resin was transferred to new tubes, and 1000 μl of the culture supernatant containing expressed KIgk-LIPH4 was mixed with […] of the resin treated with LIPG-BioFLAGHis or without the bait, and the resulting mixtures were agitated at 4° C. for 1 hour and 30 minutes by rotation on a mini-disk rotor (BIO CRAFT) to allow binding. After removal of the solution, the resin was washed three times with […] of TBST (Tween 20, 0.1%), and the recovered resin was used for Western blotting.
Each resin was mixed with water and LDS sample buffer (4×), 0.2 mM DTT, heated at 70° C. for 10 minutes, and then subjected to SDS-PAGE. SDS-PAGE was performed using 4-12% Bis-Tris gel and NuPAGE MES-SDS electrophoresis buffer (Invitrogen) at 200 V and 400 mA for 35 minutes. After electrophoresis, transfer was performed using Mini Format, 0.2-μm PVDF, Single-application (BIO-RAD) Trans-Blot Turbo. The membrane was blocked with a Blocking One Buffer: TBST (1:9) solution and reacted with an anti-Flag-HRP (Sigma: A8592) diluted 2:3000 in a Blocking One Buffer: TBST (1:9) solution. Detection was performed using ECL (Enhanced ChemiLuminescence) on a ChemiDoc (BIO-RAD).
A pull-down assay was performed on the full-length form of LIPG (500 amino acids) with LIPH4 peptides (FIG. 16).

Molecule	binding to LIPG in pull-down assay
CPCVNGATRHRPTSLC (LIPH4-16) [KIgk-LIPH4-16]	positive
GADLRRGCC (LIPH4-87) [KIgk-LIPH4-87]	positive
IRNVNHSDH (LIPH4-74) [KIgk-LIPH4-74]	positive
LCECRDVLSCYYITDT (LIPH4-90) [KIgk-LIPH4-90]	positive
LNVGYVFYP (LIPH4-15) [KIgk-LIPH4-15]	positive
LVPWLRYAY (LIPH4-12) [KIgk-LIPH4-12]	positive
RCRQSWNTM (LIPH4-14) [KIgk-LIPH4-14]	positive
SLYTGFRAH (LIPH4-2) [KIgk-LIPH4-2]	positive

system: HBV; assay: Anti-HBV activities of LIPG-binding peptides in PXB cells; type: cell-based; details: HBV-infected PXB cells
Description: (§1) An infection source medium was prepared by adding the HBV-infected chimeric mouse serum (PhoenixBio), DMSO, and a PEG 8000 solution to the PXB cell culture medium (PhoenixBio) at final concentrations of 5 genome equivalents/cell, 2%, and 4%, respectively. Various synthesized peptides were diluted to different concentrations in this medium, and the resulting media were added individually to PXB cells (PhoenixBio). After the cells were left to stand in a 5% CO2 incubator at 37° C. for 20 to 28 hours, the medium was removed and the wells were washed once with PBS(−). DMSO and one of the various synthesized peptides were added to the PXB cell culture medium at a final concentration of 2% and different concentrations, respectively, and the resulting media were added individually to the PXB cells to perform medium exchange. This medium exchange was performed at 1, 5, and 9 days post infection and samples were collected at 14 days post infection.
(§2) SMI TEST™ M EX-R&D (Medical & Biological Laboratories) was used to extract DNA from the samples. The extracted DNA was used as a template for quantitative PCR of HBV-DNA. For cccDNA detection, the extracted DNA was treated with T5 exonuclease (New England Biolabs), and the resulting DNA was used as a template for quantitative PCR. The T5 exonuclease treatment was performed at 37° C. for 30 minutes, and the DNase was later inactivated by heating at 80° C. for 15 minutes. The following primer set was used for detection.
PXB cells, fresh human liver cells isolated from PXB mice (human hepatocyte chimeric mice), are human liver cells that maintain human liver functions at high levels and allow persistent infection with hepatitis B virus (HBV). Therefore, PXB cells were used to evaluate the anti-HBV activities of LIPG-binding peptides. LIPG-binding peptides were chemically synthesized because they were added extracellularly (Eurofins Genomics K.K.). Clones that had shown excellent results in the studies of Examples 10 and 1 (KIgk-LIPH4-23, KIgk-LIPH4-74, KIgk-LIPH4-15, KIgk-L1l 14-2. KIgk-LIPH14-14. KIgk-LIPH4-87) were selected for chemical synthesis of the peptides. […] Therefore, LIPH4-NTNA and LIPH4-NTNB, which share a common sequence with netrins and consist of 16 amino acids, were also chemically synthesized. The chemically synthesized peptides were dissolved in DMSO for use in HBV assays in PXB cells.
Next, the anti-HBV activity of full-length Netrin-1 was examined in PXB cells. A full-length human recombinant Netrin-1 protein consisting of 604 amino acid residues (molecular weight: 67.5 kDa, SEQ ID NO: 28) was purchased from R&D Systems. United States. A shRNA with the sequence […]ctcgagc[…] TTTTTTG (single underline: terminal sequences for cloning, lowercase letters: hairpin loop sequence) (SEQ ID NO: 64) was used to knock down the Netrin-1 gene.

Molecule	anti-HBV activity (effect to reduce HBV DNA and cccDNA copy numbers)
LNCRHNTAGRHCHYCK (LIPH4-NTNB)	high anti-HBV activity
RKSGGVCLNCRHNTAG (LIPH4-NTNA)	as strongly as the polypeptides (5) to (10)

same assay, conditions: HBV-infected PXB cells; listed as polypeptide (12)

Molecule	anti-HBV activity (effect to reduce HBV DNA and cccDNA copy numbers)
LNCRHNTAGRHCHYCK (LIPH4-NTNB)	as strongly as the polypeptides (5) to (10)

same assay, conditions: PXB cells, Netrin-1 gene knocked down, vs control

Molecule	HBV-DNA copy number	cccDNA copy number
Netrin-1 shRNA: shRNA of SEQ ID NO: 64 used to knock down the Netrin-1 gene (guide CCGGGACTGCGATTCCTACTGCAAGCTCGAGCTTGCAGTAGGAATCGCAGTCTTTTTTG) [reference compound]	remarkably increased	remarkably increased

system: HBV; assay: Anti-HBV activities of LIPG-binding peptides delivered into PXB cells-2 (scFv fusions, 4% PEG); type: cell-based; details: presence of 4% PEG
Description: as §1, §2
The anti-HBV activities of LIPG-binding peptides delivered into cells were evaluated using PXB cells and anti-ASGR single-chain antibody-LIPG-binding peptide fusions. The anti-HBV activity was evaluated in the presence of 4% PEG. The evaluation of the anti-HBV effect in the presence of PEG is more stringent than under the conditions in Example 18 without the presence of PEG because the HBV-DNA and cccDNA copy numbers are increased in the presence of PEG. Of the fusions prepared in Example 16, 10M-LN4SN, 10M-LN4N, 10M-LLNTSN, and 10M-LLNTSN-S39 were used. According to the timeline shown in FIG. 42A, the anti-HBV activities of the fusions were evaluated using the methods described in “(10-5) Infection experiment using PXB cells” and “(10-6) Quantification of HBV-DNA and cccDNA”.

Molecule	HBV-DNA copy number	cccDNA copy number
B1	remarkably reduced	remarkably reduced
B2	remarkably reduced	remarkably reduced
B3	remarkably reduced	remarkably reduced
B4	remarkably reduced	remarkably reduced
